Measured values from publication PMC10276142, “Protocol to measure protein-RNA binding using double filter-binding assays followed by phosphorimaging or high-throughput sequencing”.

Molecular target: AGO2 (miR-449a RISC) (mouse, UniProt Q8CJG0 1-860)
Experiment: filter binding; titration regime, 0.5 nM target RNA (2.5 nM stock, 1 in 5), 37 C 1 h; stoichiometric point [RISC]/[target] 1.3 (77% active); no KD reported; Double filter binding (nitrocellulose/nylon), 5 uL reactions, 37 C for 1 h; compositions of Storage, Dilution and Reaction Mix buffers not given in material
Conditions: protein: recombinant; tags: FLAG; label: 5' 32P on target; guide:target seed pairing, guide nt 2-8 plus A opposite nt 1; rest of target single-stranded

Chain of AGO2 (miR-449a RISC) (Q8CJG0 whole entry): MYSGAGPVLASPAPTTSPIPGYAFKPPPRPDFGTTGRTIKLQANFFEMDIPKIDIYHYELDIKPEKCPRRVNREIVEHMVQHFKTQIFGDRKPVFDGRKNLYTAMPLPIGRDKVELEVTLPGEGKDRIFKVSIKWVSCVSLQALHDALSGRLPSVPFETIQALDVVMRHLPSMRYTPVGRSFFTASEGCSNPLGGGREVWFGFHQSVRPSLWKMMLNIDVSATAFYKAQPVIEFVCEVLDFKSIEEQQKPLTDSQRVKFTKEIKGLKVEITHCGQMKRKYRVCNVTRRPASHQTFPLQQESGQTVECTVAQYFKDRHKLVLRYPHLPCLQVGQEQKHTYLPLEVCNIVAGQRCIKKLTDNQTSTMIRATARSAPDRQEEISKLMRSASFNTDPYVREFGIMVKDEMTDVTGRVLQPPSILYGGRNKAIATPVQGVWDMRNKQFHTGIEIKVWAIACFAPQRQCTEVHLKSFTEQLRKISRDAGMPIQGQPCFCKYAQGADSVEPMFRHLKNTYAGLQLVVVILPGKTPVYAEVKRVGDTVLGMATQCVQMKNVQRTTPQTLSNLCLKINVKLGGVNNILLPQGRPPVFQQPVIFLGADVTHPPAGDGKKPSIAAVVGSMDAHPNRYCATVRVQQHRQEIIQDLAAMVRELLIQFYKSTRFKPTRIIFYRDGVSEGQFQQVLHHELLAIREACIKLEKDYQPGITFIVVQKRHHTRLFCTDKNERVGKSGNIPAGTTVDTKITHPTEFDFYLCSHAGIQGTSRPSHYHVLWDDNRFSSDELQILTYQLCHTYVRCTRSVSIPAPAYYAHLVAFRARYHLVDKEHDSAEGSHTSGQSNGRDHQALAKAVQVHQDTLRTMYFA

B1: miR-449a guide / 8mer-site target RNA (mixed)
RNA 1: UGGCAGUGUAUUGUUAGCUGGU
RNA 2: AUGAAAUCGAUAUCUAUCACUGCCAACU
modifications: guide 5'-phosphate; target 5' 32P-phosphate
- binding result: binds
